Measurements taken from patent US20030068675, “Position dependent recognition of GNN nucleotide triplets by zinc fingers” (published 2003).

Tests used:
Assay in all cases: EMSA
Details in all cases: tags: MBP fusion
ZFP SBS#1026 = target: T1, ZFP SBS#1026 (synthetic)
T1 chain: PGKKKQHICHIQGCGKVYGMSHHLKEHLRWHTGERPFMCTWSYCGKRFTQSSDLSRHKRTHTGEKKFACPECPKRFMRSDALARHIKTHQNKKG
Summary of the method: (§1)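 Purified ZFP was titrated against labeled double-stranded target (1 nM or lower, at least 10-fold below expected Kd) carrying the natural binding site with flanks. Binding buffer was 10 mM Tris pH 7.5, 100 mM KCl, 1 mM MgCl2, 0.1 mM ZnCl2, 5 mM DTT, 10% glycerol, 0.02% BSA, with equilibration for at least 45 min. Bound and free target were separated on a 10% polyacrylamide gel.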

ZFP SBS#1037 = ZFP SBS#1037 (synthetic)
Sequence of ZFP SBS#1037 (synthetic) (chain, as listed by the source): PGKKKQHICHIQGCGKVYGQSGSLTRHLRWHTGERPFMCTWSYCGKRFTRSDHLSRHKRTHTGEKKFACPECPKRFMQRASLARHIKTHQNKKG
Summary of the method: as §1

ZFP SBS#1038 = ZFP SBS#1038 (synthetic)
Sequence of ZFP SBS#1038 (synthetic) (chain, as listed by the source): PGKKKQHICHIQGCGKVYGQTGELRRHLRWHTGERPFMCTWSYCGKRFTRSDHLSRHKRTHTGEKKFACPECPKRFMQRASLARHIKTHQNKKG
Summary of the method: as §1

ZFP SBS#1022 = target: T2, ZFP SBS#1022 (synthetic)
T2 chain: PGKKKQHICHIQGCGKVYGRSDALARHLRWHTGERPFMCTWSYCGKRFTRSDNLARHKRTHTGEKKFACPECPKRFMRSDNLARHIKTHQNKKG
Summary of the method: as §1

ZFP SBS#1025 = ZFP SBS#1025 (synthetic)
Sequence of ZFP SBS#1025 (synthetic) (chain, as listed by the source): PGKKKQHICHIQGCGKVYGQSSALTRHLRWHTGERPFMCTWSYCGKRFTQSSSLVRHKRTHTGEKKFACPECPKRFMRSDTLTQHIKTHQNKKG
Summary of the method: as §1

ZFP SBS#1018 = ZFP SBS#1018 (synthetic)
Sequence of ZFP SBS#1018 (synthetic) (chain, as listed by the source): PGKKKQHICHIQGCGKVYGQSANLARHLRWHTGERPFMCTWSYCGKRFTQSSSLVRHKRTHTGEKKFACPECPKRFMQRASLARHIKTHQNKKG
Summary of the method: as §1

ZFP SBS#1013 = ZFP SBS#1013 (synthetic)
Summary of the method: as §1

ZFP SBS#1010 = ZFP SBS#1010 (synthetic)
Sequence of ZFP SBS#1010 (synthetic) (chain, as listed by the source): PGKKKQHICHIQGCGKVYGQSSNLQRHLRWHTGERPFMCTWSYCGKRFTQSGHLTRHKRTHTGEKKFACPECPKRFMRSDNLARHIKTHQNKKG
Summary of the method: as §1

ZFP SBS#1007 = ZFP SBS#1007 (synthetic)
Sequence of ZFP SBS#1007 (synthetic) (chain, as listed by the source): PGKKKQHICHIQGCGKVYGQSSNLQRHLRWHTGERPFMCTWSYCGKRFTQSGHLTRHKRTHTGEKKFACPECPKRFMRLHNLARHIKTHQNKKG
Summary of the method: as §1

ZFP SBS#258 = ZFP SBS#258 (synthetic)
Sequence of ZFP SBS#258 (synthetic) (chain, as listed by the source): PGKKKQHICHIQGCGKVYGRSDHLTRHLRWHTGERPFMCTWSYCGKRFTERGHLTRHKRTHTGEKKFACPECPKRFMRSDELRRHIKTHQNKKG
Summary of the method: as §1

ZFP SBS#1017 = target: T3, ZFP SBS#1017 (synthetic)
T3 chain: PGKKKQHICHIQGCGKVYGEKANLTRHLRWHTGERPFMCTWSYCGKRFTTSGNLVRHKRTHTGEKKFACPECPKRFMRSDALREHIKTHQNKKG
Summary of the method: as §1

ZFP SBS#1011 = target: T4, ZFP SBS#1011 (synthetic)
T4 chain: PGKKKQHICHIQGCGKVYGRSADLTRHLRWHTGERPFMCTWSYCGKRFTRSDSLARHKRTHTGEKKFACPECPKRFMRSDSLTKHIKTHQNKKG
Summary of the method: as §1

ZFP SBS#996 = target: T5, ZFP SBS#996 (synthetic)
T5 chain: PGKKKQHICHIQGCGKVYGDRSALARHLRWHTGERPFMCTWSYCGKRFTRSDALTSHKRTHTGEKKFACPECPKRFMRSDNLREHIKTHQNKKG
Summary of the method: as §1

ZFP SBS#1000 = target: T6, ZFP SBS#1000 (synthetic)
T6 chain: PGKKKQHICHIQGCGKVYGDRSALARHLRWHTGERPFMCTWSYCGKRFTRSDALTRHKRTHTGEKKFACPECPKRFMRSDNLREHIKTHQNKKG
Summary of the method: as §1

ZFP SBS#1016 = target: T7, ZFP SBS#1016 (synthetic)
T7 chain: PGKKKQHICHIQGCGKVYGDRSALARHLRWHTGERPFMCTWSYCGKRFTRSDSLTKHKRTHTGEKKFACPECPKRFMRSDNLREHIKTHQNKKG
Summary of the method: as §1

ZFP SBS#1024 = target: T8, ZFP SBS#1024 (synthetic, UniProt P08047)
T8 chain: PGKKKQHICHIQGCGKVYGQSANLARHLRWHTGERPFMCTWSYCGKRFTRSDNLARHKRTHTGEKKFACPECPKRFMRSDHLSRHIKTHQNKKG
Summary of the method: as §1

ZFP SBS#995 = ZFP SBS#995 (synthetic, UniProt P08047)
Sequence of ZFP SBS#995 (P08047 other isoform, or with tags, fused parts or gaps): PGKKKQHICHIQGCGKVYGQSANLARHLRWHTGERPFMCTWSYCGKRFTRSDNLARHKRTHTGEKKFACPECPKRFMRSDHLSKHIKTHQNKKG
Summary of the method: as §1

ZFP SBS#1015 = ZFP SBS#1015 (synthetic)
Sequence of ZFP SBS#1015 (synthetic) (chain, as listed by the source): as the sequence (P08047 other isoform, or with tags, fused parts or gaps) above, with Q20R, A22D, A25V, H81T, S83K counted along it
Summary of the method: as §1

ZFP SBS#1002 = target: T9, ZFP SBS#1002 (synthetic)
T9 chain: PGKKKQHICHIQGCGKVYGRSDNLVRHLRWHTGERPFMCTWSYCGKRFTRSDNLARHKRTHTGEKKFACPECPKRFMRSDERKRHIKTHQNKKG
Summary of the method: as §1

ZFP SBS#1019 = ZFP SBS#1019 (synthetic)
Sequence of ZFP SBS#1019 (synthetic) (chain, as listed by the source): as the sequence (P08047 other isoform, or with tags, fused parts or gaps) above, with Q20R, A22D, S83T, K84Q counted along it
Summary of the method: as §1

ZFP SBS#964 = ZFP SBS#964 (synthetic)
Sequence of ZFP SBS#964 (synthetic) (chain, as listed by the source): as the sequence (P08047 other isoform, or with tags, fused parts or gaps) above, with Q20R, A22D, N23A, N53E, A55Q, H81E, L82R, S83K, K84R counted along it
Summary of the method: as §1

ZFP SBS#1027 = target: T10, ZFP SBS#1027 (synthetic, UniProt P08047)
T10 chain: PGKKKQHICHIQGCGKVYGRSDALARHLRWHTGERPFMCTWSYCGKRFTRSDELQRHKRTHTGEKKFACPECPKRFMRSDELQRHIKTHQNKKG
Summary of the method: as §1

ZFP SBS#1034 = target: T11, ZFP SBS#1034 (synthetic)
T11 chain: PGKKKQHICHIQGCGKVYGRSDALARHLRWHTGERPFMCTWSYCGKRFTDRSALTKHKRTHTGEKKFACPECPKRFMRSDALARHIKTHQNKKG
Summary of the method: as §1

ZFP SBS#1035 = target: T12, ZFP SBS#1035 (synthetic)
T12 chain: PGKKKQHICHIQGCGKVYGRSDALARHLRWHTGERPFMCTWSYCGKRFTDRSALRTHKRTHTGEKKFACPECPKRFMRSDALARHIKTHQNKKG
Summary of the method: as §1

ZFP SBS#1033 = target: T13, ZFP SBS#1033 (synthetic)
T13 chain: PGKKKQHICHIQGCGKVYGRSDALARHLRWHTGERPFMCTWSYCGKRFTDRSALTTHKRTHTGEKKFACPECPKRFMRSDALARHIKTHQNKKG
Summary of the method: as §1

ZFP SBS#988 = ZFP SBS#988 (synthetic)
Sequence of ZFP SBS#988 (synthetic) (chain, as listed by the source): as the sequence (P08047 other isoform, or with tags, fused parts or gaps) above, with Q20T, A22G, A25V, R50Q, D52S, N53D, A55Q, R78M, D80H, K84R counted along it
Summary of the method: as §1

ZFP SBS#986 = ZFP SBS#986 (synthetic)
Sequence of ZFP SBS#986 (synthetic) (chain, as listed by the source): as the sequence (P08047 other isoform, or with tags, fused parts or gaps) above, with A22S, A25Q, R50Q, D52S, N53D, A55Q, R78M, D80H, K84R counted along it
Summary of the method: as §1

ZFP SBS#987 = ZFP SBS#987 (synthetic)
Summary of the method: as §1

ZFP SBS#1032 = ZFP SBS#1032 (synthetic)
Sequence of ZFP SBS#1032 (synthetic) (chain, as listed by the source): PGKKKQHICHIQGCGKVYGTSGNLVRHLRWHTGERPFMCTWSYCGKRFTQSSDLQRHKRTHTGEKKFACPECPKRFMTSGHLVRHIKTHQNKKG
Summary of the method: as §1

ZFP SBS#1014 = ZFP SBS#1014 (synthetic)
Summary of the method: as §1

ZFP SBS#1012 = ZFP SBS#1012 (synthetic)
Sequence of ZFP SBS#1012 (synthetic) (chain, as listed by the source): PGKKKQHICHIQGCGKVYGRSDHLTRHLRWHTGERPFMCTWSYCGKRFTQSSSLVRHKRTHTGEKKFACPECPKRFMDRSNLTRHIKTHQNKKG
Summary of the method: as §1

ZFP SBS#1008 = target: T14, ZFP SBS#1008 (synthetic)
T14 chain: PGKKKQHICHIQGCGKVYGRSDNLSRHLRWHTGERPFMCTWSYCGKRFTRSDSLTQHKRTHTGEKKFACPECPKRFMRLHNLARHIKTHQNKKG
Summary of the method: as §1

ZFP SBS#1009 = target: T15, ZFP SBS#1009 (synthetic)
T15 chain: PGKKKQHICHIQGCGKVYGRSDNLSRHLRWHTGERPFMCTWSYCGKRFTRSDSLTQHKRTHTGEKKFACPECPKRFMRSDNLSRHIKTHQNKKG
Summary of the method: as §1

ZFP SBS#450 = target: T16, ZFP SBS#450 (synthetic)
T16 chain: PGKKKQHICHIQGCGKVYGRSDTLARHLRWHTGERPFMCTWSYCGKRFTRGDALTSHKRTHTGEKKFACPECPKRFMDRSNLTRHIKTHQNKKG
Summary of the method: as §1

B1: GTGGCTTGT (dsDNA)
DNA 1: GTGGCTTGT
DNA 2: ACAAGCCAC
Kd (ZFP SBS#1026): 0.076 nM

B2: GTAGGGGCA (dsDNA)
DNA 1: GTAGGGGCA
DNA 2: TGCCCCTAC
Kd (ZFP SBS#1037): 0.05 nM | Kd (ZFP SBS#1038): 0.152 nM

B3: GAGGAGGTG (dsDNA)
DNA 1: GAGGAGGTG
DNA 2: CACCTCCTC
Kd (ZFP SBS#1022): 0.01 nM | Kd (ZFP SBS#1025): 0.115 nM

B4: GTAGTAGAA (dsDNA)
DNA 1: GTAGTAGAA
DNA 2: TTCTACTAC
Kd (ZFP SBS#1018): 7.2 nM

B5: GAGAGAGAT (dsDNA)
DNA 1: GAGAGAGAT
DNA 2: ATCTCTCTC
Kd (ZFP SBS#1013): 0.15 nM | Kd (ZFP SBS#1010): 8.2 nM | Kd (ZFP SBS#1007): 167 nM

B6: GCGGGCGGG (dsDNA)
DNA 1: GCGGGCGGG
DNA 2: CCCGCCCGC
Kd (ZFP SBS#258): 15 nM

B7: CTGGATGAC (dsDNA)
DNA 1: CTGGATGAC
DNA 2: GTCATCCAG
Kd (ZFP SBS#1017): 0.233 nM

B8: TTGGTGGCG (dsDNA)
DNA 1: TTGGTGGCG
DNA 2: CGCCACCAA
Kd (ZFP SBS#1011): 0.03 nM

B9: CAGTTGGTC (dsDNA)
DNA 1: CAGTTGGTC
DNA 2: GACCAACTG
Kd (ZFP SBS#996): 9.6 nM | Kd (ZFP SBS#1000): 11.2 nM | Kd (ZFP SBS#1016): 0.09 nM

B10: GGGGAGGAA (dsDNA)
DNA 1: GGGGAGGAA
DNA 2: TTCCTCCCC
Kd (ZFP SBS#1024): 0.08 nM | Kd (ZFP SBS#995): 0.08 nM

B11: GCGGAGGAG (dsDNA)
DNA 1: GCGGAGGAG
DNA 2: CTCCTCCGC
Kd (ZFP SBS#1015): 0.008 nM | Kd (ZFP SBS#1002): 0.028 nM

B12: AGGGAGGAG (dsDNA)
DNA 1: AGGGAGGAG
DNA 2: CTCCTCCCT
Kd (ZFP SBS#1019): 0.022 nM

B13: GCGGCGGTG (dsDNA)
DNA 1: GCGGCGGTG
DNA 2: CACCGCCGC
Kd (ZFP SBS#964): 0.041 nM | Kd (ZFP SBS#1027): 0.054 nM

B14: GTGTTCGTG (dsDNA)
DNA 1: GTGTTCGTG
DNA 2: CACGAACAC
Kd (ZFP SBS#1034): 14.6 nM | Kd (ZFP SBS#1035): 56 nM | Kd (ZFP SBS#1033): 685 nM

B15: GGTGCTGAT (dsDNA)
DNA 1: GGTGCTGAT
DNA 2: ATCAGCACC
Kd (ZFP SBS#988): 0.15 nM | Kd (ZFP SBS#986): 1.6 nM | Kd (ZFP SBS#987): 33.5 nM | Kd (ZFP SBS#1032): 0.52 nM

B16: GACGTAGGG (dsDNA)
DNA 1: GACGTAGGG
DNA 2: CCCTACGTC
Kd (ZFP SBS#1014): 0.01 nM | Kd (ZFP SBS#1012): 0.032 nM

B17: GAGATGGAG (dsDNA)
DNA 1: GAGATGGAG
DNA 2: CTCCATCTC
Kd (ZFP SBS#1008): 0.4 nM | Kd (ZFP SBS#1009): 1.9 nM

B18: GACTTGGTGC (dsDNA)
DNA 1: GACTTGGTGC
DNA 2: GCACCAAGTC
Kd (ZFP SBS#450): 130 nM
